Source: patent publication US11098109B2, “Single-chain variable fragment anti-CD133 antibodies and uses thereof” (REGENTS OF THE UNIVERSITY OF MINNESOTA, priority 2010, dated 2021)

Columns and labels:
[1] = test system: CD133^+ Caco-2 cells; assay: Immunofluorescence of fixed Caco-2 cells with hybridoma supernatants; format: binding, human; conditions: hybridoma supernatant
Procedure: FIG. 2: Analysis of the newly generated CD133 hybridoma. Supematants of hybridoma clones were tested as a primary antibody in western blot (A) and Immunofluorescence (B) assays. Pre-immunized serum (-ve) or post immune anti sera (a.s.) served as controls. For western blot, Caco-2 lysates normalized for protein concentration were loaded onto a SDS-PAGE gel, resolved, blotted onto a nitrocellulose membrane and cut into strips. Each strip was probed with supernatant from the identified hybridoma. Membrane in Lane 1 was probed with a commercially available antibody (ab 19898, Abcam) and served as an additional positive control. For immunofluorescence, Caco-2 cells were fixed and immunostained with the hybridoma supernatants. A commercially available antibody (293C3, Militenyi) was used as additional positive control. Scale bars in the panel represent 200 micrometers. Supernatant of Hybridoma Clone 7 was used in the immunohistochemical analysis of primary glioblastoma and kidney tissue (C).
Caco-2 cells were plated in 16-well chamber slides. After four days of growth, the cells were fixed with 4% paraformaldehyde, washed in DPBS and then incubated in 200 mM glycine for 10 minutes. The cells were then blocked with a solution of 0.5% BSA and 0.2% gelatin in PBS for 10 minutes. […] The cells were further washed with PBS and then visualized under a fluorescence microscope. […]

[2] = target: T1, CD133 (Homo sapiens, UniProt O43490); assay: Tunicamycin glycosylation inhibition, Western blot of Caco-2 lysates; format: binding; conditions: Caco-2 cells treated with tunicamycin
T1 construct: endogenous in cells
T1 sequence (O43490 20-865): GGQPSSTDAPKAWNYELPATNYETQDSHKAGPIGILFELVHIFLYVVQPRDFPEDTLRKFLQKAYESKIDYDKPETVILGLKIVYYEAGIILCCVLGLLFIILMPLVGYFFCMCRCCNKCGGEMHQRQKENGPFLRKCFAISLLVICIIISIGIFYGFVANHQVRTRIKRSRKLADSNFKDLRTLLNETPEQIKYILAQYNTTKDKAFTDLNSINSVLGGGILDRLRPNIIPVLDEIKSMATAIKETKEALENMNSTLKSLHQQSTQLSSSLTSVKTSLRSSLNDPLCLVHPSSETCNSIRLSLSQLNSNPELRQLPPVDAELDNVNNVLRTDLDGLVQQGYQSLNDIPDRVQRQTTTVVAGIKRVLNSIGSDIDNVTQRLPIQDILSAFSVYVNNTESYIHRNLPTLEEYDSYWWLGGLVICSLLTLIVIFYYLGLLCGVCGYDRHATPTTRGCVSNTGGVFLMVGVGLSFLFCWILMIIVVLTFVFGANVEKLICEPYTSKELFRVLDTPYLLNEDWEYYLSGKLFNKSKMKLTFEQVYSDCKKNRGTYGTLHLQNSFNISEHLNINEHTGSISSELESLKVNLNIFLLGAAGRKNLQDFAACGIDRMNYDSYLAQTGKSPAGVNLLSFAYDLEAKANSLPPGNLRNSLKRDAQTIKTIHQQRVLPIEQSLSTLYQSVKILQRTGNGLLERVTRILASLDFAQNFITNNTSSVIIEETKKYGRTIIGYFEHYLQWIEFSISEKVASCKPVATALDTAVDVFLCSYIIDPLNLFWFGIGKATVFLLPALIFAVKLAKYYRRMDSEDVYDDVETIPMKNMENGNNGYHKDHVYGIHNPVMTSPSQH
Procedure: FIG. 3: Specificity of antibody produced by Hybridoma Clone 7. (A) Flow cytometry. Cells were incubated with primary antibody from either Hybridoma Clone 7 or 293C3 (Militenyi), followed by incubation with a labeled secondary antibody, and then analyzed by flow cytometry. Antibody from the newly developed anti-CD133 Hybridoma Clone 7 (open black histogram) stains very specifically the CD133-overexpressing cells, Caco-2 (iii), GBM6 (iv) and U87 cells transfected with CD133 (ii) but not CD133 negative U87 cells (i). Immunostaining using the monoclonal antibody produced by Hybridoma Clone 7 is compared to clone 293C3 (open grey histogram). Isotype control is represented by solid grey histogram. (B) Tunicamycin mediated glycosylation inhibition. Caco-2 cells were treated with increasing doses of tunicamycin (2.5, 5, 10, 20 μg/ml) for 3 days. DMSO treated cells or untreated cells served as controls. Cells were lysed and then analyzed by Western blotting using the monoclonal antibody produced by Hybridoma Clone 7 or GAPDH antibodies.
Caco-2 cells were seeded in 6-well plates and treated with 2.5 μg/ml-20 μg/ml tunicarmycin or vehicle (medium containing 0.1% DMSO) for three days. […] The lysates were centrifuged to remove cell debris and then analyzed by western blotting using either Hybridoma Clone 7 or anti-GAPDH (Sigma-Aldrich Corp., St. Louis, Mo.) as primary antibodies.

[3] = target: T2, human prominin-1 (Homo sapiens, UniProt O43490, DEL381-611); assay: ELISA of hybridoma supernatant on recombinant C-prominin-1; format: binding; conditions: supernatant at 1:1, 1:10, 1:100, 1:500 dilution
T2 construct: His-tag (6xHis) (N); made in house
T2 sequence (O43490 with tags, fused parts or gaps DEL381-611): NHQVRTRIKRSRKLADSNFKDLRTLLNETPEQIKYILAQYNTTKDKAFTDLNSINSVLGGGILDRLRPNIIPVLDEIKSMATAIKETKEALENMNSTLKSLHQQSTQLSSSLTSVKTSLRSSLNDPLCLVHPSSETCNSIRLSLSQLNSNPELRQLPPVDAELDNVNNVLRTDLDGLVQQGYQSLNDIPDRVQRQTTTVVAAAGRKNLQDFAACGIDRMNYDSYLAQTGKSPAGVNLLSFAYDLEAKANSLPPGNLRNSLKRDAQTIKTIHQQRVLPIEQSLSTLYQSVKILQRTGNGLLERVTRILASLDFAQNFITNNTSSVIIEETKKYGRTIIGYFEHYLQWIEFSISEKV
Procedure: The hybridoma cells were cultured in DMEM with 10% FBS. When the cells were confluent, they were grown for additional 2-3 days. The supernatant was harvested for ELISA. The recombinant C-prominin-1 protein was coated at a 1:1000 dilution in 96-well plate and incubated at 4° C. ovemight. The coating buffer was discarded, the protein was washed 1 time, 300 μl/well of 5% milk buffer was added, and incubated at 4° C. overnight.
The hybridoma supernatant was diluted with 5% milk buffer at 1:1, 1:10, 1:100, 1:500 and 50 μL/well was added and incubated at 37° C. for one hour. The wells were washed four times, and 50 μL/well goat anti-mouse secondary antibody-HOURP conjugate was added at a dilution of 1:2000 and incubated at 37° C. for one hour. Washed four times, and added 50 μL/well substrate.

B1: Hybridoma Clone 7: monoclonal antibody produced by Hybridoma Clone 7 that specifically binds to human CD133 (antibody, V domains shown)
VL: DIVLSQSPAIMSASPGEKVTISCSASSSVSYMYWYQQKPGSSPKPWIYRTSNLASGVPARFSGSGSGTSYSLTISSMEAEDAATYYCQQYHSYPPTFGAGTKLELK
VH: LEVKLVESGPELKKPGETVKISCKASGYTFTDYSMHWVNQAPGKGLKWMGWINTETGEPSYADDFKGRFAFSLETSASTAYLQINNLKNEDTATYFCATDYGDYFDYWGQGTTLTVSS
[1]
  immunofluorescence staining of the Caco-2 cell membrane: robustly stained
[2]
  epitope recognized (glycosylated or not): specifically binds to an non-glycosylated epitope
[3]
  reaction of supernatant with human prominin-1 in ELISA: binds its antigen with high specificity and affinity
